# Laboratory results reported in patent publication US20220220218A1 (JIANGSU HENGRUI MEDICINE, published 2022).
# T1: human CD73 (huCD73) protein, antigen of the Biacore assay (human, UniProt P21589 27-547, limits assumed)
# T1 construct: also called human CD73 antigen
# T1 sequence (looked up): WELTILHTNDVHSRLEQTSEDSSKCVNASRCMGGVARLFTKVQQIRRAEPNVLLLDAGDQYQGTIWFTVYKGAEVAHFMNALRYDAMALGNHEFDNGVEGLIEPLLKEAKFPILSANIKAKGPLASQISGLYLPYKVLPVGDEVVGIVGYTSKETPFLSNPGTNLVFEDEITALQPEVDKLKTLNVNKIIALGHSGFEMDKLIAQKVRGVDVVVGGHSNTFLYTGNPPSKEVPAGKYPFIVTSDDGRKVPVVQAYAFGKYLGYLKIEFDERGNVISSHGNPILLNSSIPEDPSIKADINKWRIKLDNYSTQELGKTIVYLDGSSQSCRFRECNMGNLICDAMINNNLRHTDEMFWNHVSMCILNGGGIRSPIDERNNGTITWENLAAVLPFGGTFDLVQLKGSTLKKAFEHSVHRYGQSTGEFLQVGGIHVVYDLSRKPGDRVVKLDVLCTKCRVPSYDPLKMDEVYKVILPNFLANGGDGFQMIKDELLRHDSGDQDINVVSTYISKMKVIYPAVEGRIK
# Target: T1, human CD73 (huCD73) protein, antigen of …
# Assay: SPR Biacore T200; antibody captured on Protein A chip, CD73 in flow; 1:1 Langmuir
# From the text: In this experiment, Biacore instrument was used to determine the affinity of the humanized anti-CD73 antibodies to be tested with human CD73 (huCD73) and monkey CD73 (cynoCD73).
# A certain amount of test antibody was affinity-captured with Protein A biosensing chip (Cat. #29127556, GE), and then a certain concentration of human or monkey CD73 antigen was allowed to flow through the surface of the chip. The reaction signals were detected in real time with Biacore instrument (Biacore T200, GE) to generate a binding and dissociation curve. At the end of each cycle, after the dissociation was completed, the biosensor chip was washed and regenerated with Glycine-HCl, pH1.5 (Cat. #BR-1003-54, GE). The running buffer for the assay was 1×HBS-EP buffer solution (Cat. #BR-1001-88, GE).
# The data obtained from the experiment was fitted against (1:1) Langmuir model using GE Biacore T200 Evaluation version 3.0 software, and the affinity values were obtained, as shown in Table 12 and Table 13 for details.
Binder,Kd,koff,kon
"Hab110.23 (antibody, V domains shown, VL2 + VH3; recombined with human heavy and light constant regions) VH: EVQLVQSGAEVKKPGASVKVSCKASGYTFTSYTMHWVRQAPGQRLEWIGYINPNSFYIEYNQKFKDRATLTADTSASTAYMELSSLRSEDTAVYYCARGDYDLFYDMDNWGQGTTVTVSS VL: DIQMTQSPSSLSASVGDRVTITCRASQDIGNSLNWLQQKPGKAIKRLIYATFRLDSGVPSRFSGSRSGTEYTLTISSLQPEDFATYYCQQYASFPWTFGGGTKVEIK",0.166 nM,5.43e-05 s⁻¹,327000 M⁻¹ s⁻¹
"Hab110.25 (antibody, V domains shown, VL2 + VH5; recombined with human heavy and light constant regions) VH: EVQLVQSGAEVKKPGASVKVSCKASGYTFTSYTMHWVKQAPGQGLEWIGYINPNSFYIEYNQKFKDKATLTADTSASTAYMELSSLRSEDTAVYYCARGDYDLFYDMDNWGQGTTVTVSS VL: DIQMTQSPSSLSASVGDRVTITCRASQDIGNSLNWLQQKPGKAIKRLIYATFRLDSGVPSRFSGSRSGTEYTLTISSLQPEDFATYYCQQYASFPWTFGGGTKVEIK",0.223 nM,7.79e-05 s⁻¹,349000 M⁻¹ s⁻¹
"Hab110.35 (antibody, V domains shown, VL3 + VH5; recombined with human heavy and light constant regions) VH: EVQLVQSGAEVKKPGASVKVSCKASGYTFTSYTMHWVKQAPGQGLEWIGYINPNSFYIEYNQKFKDKATLTADTSASTAYMELSSLRSEDTAVYYCARGDYDLFYDMDNWGQGTTVTVSS VL: DIQMTQSPSSLSASVGDRVTITCRASQDIGNSLNWLQQKPGGAIKRLIYATFRLDSGVPSRFSGSRSGTEYTLTISSLQPEDFADYYCQQYASFPWTFGGGTKVEIK",0.244 nM,9.4e-05 s⁻¹,385000 M⁻¹ s⁻¹
"Hab110.24 (antibody, V domains shown, VL2 + VH4; recombined with human heavy and light constant regions) VH: EVQLVQSGAEVKKPGASVKVSCKASGYTFTSYTMHWVRQAPGQRLEWIGYINPNSFYIEYNQKFKDKATLTADTSASTAYMELSSLRSEDTAVYYCARGDYDLFYDMDNWGQGTTVTVSS VL: DIQMTQSPSSLSASVGDRVTITCRASQDIGNSLNWLQQKPGKAIKRLIYATFRLDSGVPSRFSGSRSGTEYTLTISSLQPEDFATYYCQQYASFPWTFGGGTKVEIK",0.188 nM,6.2e-05 s⁻¹,330000 M⁻¹ s⁻¹
"Hab110.34 (antibody, V domains shown, VL3 + VH4; recombined with human heavy and light constant regions) VH: EVQLVQSGAEVKKPGASVKVSCKASGYTFTSYTMHWVRQAPGQRLEWIGYINPNSFYIEYNQKFKDKATLTADTSASTAYMELSSLRSEDTAVYYCARGDYDLFYDMDNWGQGTTVTVSS VL: DIQMTQSPSSLSASVGDRVTITCRASQDIGNSLNWLQQKPGGAIKRLIYATFRLDSGVPSRFSGSRSGTEYTLTISSLQPEDFADYYCQQYASFPWTFGGGTKVEIK",0.228 nM,8.16e-05 s⁻¹,358000 M⁻¹ s⁻¹

# More lines, in order of falling Kd, values ahead:
Kd,koff,kon,Binder
0.188 nM,6.94e-05 s⁻¹,370000 M⁻¹ s⁻¹,"Hab110.32 (antibody, V domains shown, VL3 + VH2; recombined with human heavy and light constant regions) VH: EVQLVQSGAEVKKPGASVKVSCKASGYTFTSYTMHWVRQAPGQRLEWMGYINPNSFYIEYNQKFKDRVTITADTSASTAYMELSSLRSEDTAVYYCARGDYDLFYDMDNWGQGTTVTVSS VL: DIQMTQSPSSLSASVGDRVTITCRASQDIGNSLNWLQQKPGGAIKRLIYATFRLDSGVPSRFSGSRSGTEYTLTISSLQPEDFADYYCQQYASFPWTFGGGTKVEIK"
0.161 nM,5.86e-05 s⁻¹,364000 M⁻¹ s⁻¹,"Hab110.31 (antibody, V domains shown, VL3 + VH1; recombined with human heavy and light constant regions) VH: EVQLVQSGAEVKKPGASVKVSCKASGYTFTSYTMHWVRQAPGQRLEWMGYINPNSFYIEYNQKFKDRVTITRDTSASTAYMELSSLRSEDTAVYYCARGDYDLFYDMDNWGQGTTVTVSS VL: DIQMTQSPSSLSASVGDRVTITCRASQDIGNSLNWLQQKPGGAIKRLIYATFRLDSGVPSRFSGSRSGTEYTLTISSLQPEDFADYYCQQYASFPWTFGGGTKVEIK"
0.147 nM,4.95e-05 s⁻¹,338000 M⁻¹ s⁻¹,"Hab110.22 (antibody, V domains shown, VL2 + VH2; recombined with human heavy and light constant regions) VH: EVQLVQSGAEVKKPGASVKVSCKASGYTFTSYTMHWVRQAPGQRLEWMGYINPNSFYIEYNQKFKDRVTITADTSASTAYMELSSLRSEDTAVYYCARGDYDLFYDMDNWGQGTTVTVSS VL: DIQMTQSPSSLSASVGDRVTITCRASQDIGNSLNWLQQKPGKAIKRLIYATFRLDSGVPSRFSGSRSGTEYTLTISSLQPEDFATYYCQQYASFPWTFGGGTKVEIK"
